Read-outs that look alike come from different tables or passages of the source.
Legend:
4H883-bH = target: T1, 4H883-bH; test: two-hybrid library CCNG1;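 note: natural log of median RNA to DNA barcode read ratio; higher means stronger binding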
T1 chain: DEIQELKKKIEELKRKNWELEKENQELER

4H3010-bN = target: T2, 4H3010-bN; test: two-hybrid library CCNG1;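 note: natural log of median RNA to DNA barcode read ratio; higher means stronger binding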
T2 chain: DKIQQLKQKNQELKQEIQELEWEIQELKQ

4H346-bN = target: T3, 4H346-bN; test: two-hybrid library CCNG1;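 note: natural log of median RNA to DNA barcode read ratio; higher means stronger binding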
T3 chain: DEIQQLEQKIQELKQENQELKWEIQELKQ

4H3926-bN = target: T4, 4H3926-bN; test: two-hybrid library CCNG1;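 note: natural log of median RNA to DNA barcode read ratio; higher means stronger binding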
T4 chain: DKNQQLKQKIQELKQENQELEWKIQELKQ

4H953-bN = target: T5, 4H953-bN; test: two-hybrid library CCNG1;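 note: natural log of median RNA to DNA barcode read ratio; higher means stronger binding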
T5 chain: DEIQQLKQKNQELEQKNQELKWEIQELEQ

4H754-bN = target: T6, 4H754-bN; test: two-hybrid library CCNG1;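 note: natural log of median RNA to DNA barcode read ratio; higher means stronger binding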
T6 chain: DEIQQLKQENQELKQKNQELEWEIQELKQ

4H2673-bN = target: T7, 4H2673-bN; test: two-hybrid library CCNG1
T7 chain: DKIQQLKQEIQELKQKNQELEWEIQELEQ

4H457-bN = target: T8, 4H457-bN; test: two-hybrid library CCNG1
T8 chain: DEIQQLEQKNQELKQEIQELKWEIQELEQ

4H683-bN = target: T9, 4H683-bN; test: two-hybrid library CCNG1
T9 chain: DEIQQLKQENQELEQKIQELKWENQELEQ

4H4073-bN = target: T10, 4H4073-bN; test: two-hybrid library CCNG1
T10 chain: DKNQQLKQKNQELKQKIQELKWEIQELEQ

4H3112-bN = target: T11, 4H3112-bN; test: two-hybrid library CCNG1
T11 chain: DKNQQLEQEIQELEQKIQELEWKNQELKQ

4H855-bN = target: T12, 4H855-bN; test: two-hybrid library CCNG1
T12 chain: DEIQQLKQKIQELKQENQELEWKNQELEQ

4H968-bN = target: T13, 4H968-bN; test: two-hybrid library CCNG1
T13 chain: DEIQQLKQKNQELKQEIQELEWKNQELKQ

4H2627-bN = target: T14, 4H2627-bN; test: two-hybrid library CCNG1
T14 chain: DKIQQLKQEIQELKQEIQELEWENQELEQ

4H575-bN = target: T15, 4H575-bN; test: two-hybrid library CCNG1
T15 chain: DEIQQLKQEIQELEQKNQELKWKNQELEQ

4H780-bN = target: T16, 4H780-bN; test: two-hybrid library CCNG1
T16 chain: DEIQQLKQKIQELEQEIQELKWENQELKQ

4H3189-bA = target: T17, 4H3189-bA; test: two-hybrid library CCNG1
T17 chain: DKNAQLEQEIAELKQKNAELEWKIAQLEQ

4H918-bN = target: T18, 4H918-bN; test: two-hybrid library CCNG1
T18 chain: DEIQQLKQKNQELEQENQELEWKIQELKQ

4H797-bN = target: T19, 4H797-bN; test: two-hybrid library CCNG1
T19 chain: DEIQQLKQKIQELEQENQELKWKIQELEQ

4H3427-bN = target: T20, 4H3427-bN; test: two-hybrid library CCNG1
T20 chain: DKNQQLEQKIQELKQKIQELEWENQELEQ

4H2702-bN = target: T21, 4H2702-bN; test: two-hybrid library CCNG1
T21 chain: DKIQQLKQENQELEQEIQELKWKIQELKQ

4H2586-bN = target: T22, 4H2586-bN; test: two-hybrid library CCNG1
T22 chain: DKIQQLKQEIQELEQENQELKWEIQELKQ

4H3628-bH = target: T23, 4H3628-bH; test: two-hybrid library CCNG1
T23 chain: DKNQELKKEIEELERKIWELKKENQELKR

P1-AA = target: T24, P1-AA; test: two-hybrid library CCmax
T24 chain: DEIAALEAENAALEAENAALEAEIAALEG

P10-AA = target: T25, P10-AA; test: two-hybrid library CCmax
T25 chain: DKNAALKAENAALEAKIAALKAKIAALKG

AP4-AA = target: T26, AP4-AA; test: two-hybrid library CCmax
T26 chain: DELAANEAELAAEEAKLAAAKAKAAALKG

P2-AA = target: T27, P2-AA; test: two-hybrid library CCmax; conditions: mean of both orientations
T27 chain: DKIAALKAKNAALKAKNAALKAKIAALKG

AP1-AA = target: T28, AP1-AA; test: two-hybrid library CCmax
T28 chain: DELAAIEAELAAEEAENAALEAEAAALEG

P4-AA = target: T29, P4-AA; test: two-hybrid library CCmax
T29 chain: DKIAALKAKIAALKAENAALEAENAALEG

AP3-AA = target: T30, AP3-AA; test: two-hybrid library CCmax
T30 chain: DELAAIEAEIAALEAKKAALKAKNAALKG

AP5-AA = target: T31, AP5-AA; test: two-hybrid library CCmax
T31 chain: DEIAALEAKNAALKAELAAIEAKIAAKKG

P8-AA = target: T32, P8-AA; test: two-hybrid library CCmax
T32 chain: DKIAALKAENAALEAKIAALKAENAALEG

AP7-AA = target: T33, AP7-AA; test: two-hybrid library CCmax
T33 chain: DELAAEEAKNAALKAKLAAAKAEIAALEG

P12-AA = target: T34, P12-AA; test: two-hybrid library CCmax
T34 chain: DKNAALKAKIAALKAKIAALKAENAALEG

AP6-AA = target: T35, AP6-AA; test: two-hybrid library CCmax
T35 chain: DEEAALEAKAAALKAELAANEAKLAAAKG

P3-AA = target: T36, P3-AA; test: two-hybrid library CCmax
T36 chain: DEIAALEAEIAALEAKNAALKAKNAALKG

AP8-AA = target: T37, AP8-AA; test: two-hybrid library CCmax
T37 chain: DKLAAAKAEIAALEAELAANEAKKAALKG

GCN2_T = test: two-hybrid library CCmax
AP2-AA = target: T38, AP2-AA; test: two-hybrid library CCmax
T38 chain: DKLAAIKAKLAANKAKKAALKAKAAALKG

P9-AA = target: T39, P9-AA; test: two-hybrid library CCmax
T39 chain: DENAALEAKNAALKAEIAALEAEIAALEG

P7-AA = target: T40, P7-AA; test: two-hybrid library CCmax
T40 chain: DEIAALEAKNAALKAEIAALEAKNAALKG

P11-AA = target: T41, P11-AA; test: two-hybrid library CCmax
T41 chain: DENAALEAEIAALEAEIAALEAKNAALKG

4H_BCR = target: T42, 4H_BCR; test: two-hybrid library CCmax
T42 chain: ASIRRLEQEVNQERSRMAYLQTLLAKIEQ

DKIQQLKQEIQELKQEIQELEWENQELEQ [4H2627-bN]
interaction score (4H883-bH): 0.737 | interaction score (4H3010-bN): -0.478 | interaction score (4H346-bN): -1.49 | interaction score (4H3926-bN): -0.972 | interaction score (4H953-bN): -1.1 | interaction score (4H754-bN): -1.21 | interaction score (4H2673-bN): -0.336 | interaction score (4H457-bN): -1.44 | interaction score (4H683-bN): -0.185 | interaction score (4H4073-bN): 0.24 | interaction score (4H3112-bN): -0.418 | interaction score (4H855-bN): -0.307 | interaction score (4H968-bN): -0.499 | interaction score (4H2627-bN): -1.18 | interaction score (4H575-bN): 0.336 | interaction score (4H780-bN): -0.619 | interaction score (4H3189-bA): -2.27 | interaction score (4H918-bN): -0.935 | interaction score (4H797-bN): -2.2 | interaction score (4H3427-bN): -0.336 | interaction score (4H2702-bN): -0.837

DKIQQLKQEIQELEQENQELKWEIQELKQ [4H2586-bN]
interaction score (4H2586-bN): 0.806 | interaction score (4H3010-bN): 0.0264 | interaction score (4H346-bN): 1.97 | interaction score (4H3926-bN): 0.209 | interaction score (4H953-bN): -1.01 | interaction score (4H754-bN): -1.88 | interaction score (4H2673-bN): -1.47 | interaction score (4H457-bN): -0.912 | interaction score (4H3628-bH): 1.41 | interaction score (4H683-bN): 0.147 | interaction score (4H4073-bN): -0.362 | interaction score (4H3112-bN): -1.32 | interaction score (4H855-bN): -0.916 | interaction score (4H968-bN): -1.31 | interaction score (4H2627-bN): -0.115 | interaction score (4H575-bN): -1.1 | interaction score (4H780-bN): -1.16 | interaction score (4H918-bN): -1.12 | interaction score (4H797-bN): -0.469 | interaction score (4H3427-bN): 0.526 | interaction score (4H2702-bN): -0.448

DELAAIEAELAAEEAENAALEAEAAALEG [AP1-AA]
interaction score (P1-AA; mean of both orientations): -1.54 | interaction score (P10-AA; mean of both orientations): -1.61 | interaction score (AP4-AA; mean of both orientations): -1.14 | interaction score (P2-AA): 0.117 | interaction score (AP1-AA): -1.8 | interaction score (P4-AA; mean of both orientations): -1.4 | interaction score (AP3-AA; mean of both orientations): -1.43 | interaction score (AP5-AA; mean of both orientations): -1.52 | interaction score (P8-AA; mean of both orientations): -1.49 | interaction score (AP7-AA; mean of both orientations): -1.41 | interaction score (P12-AA; mean of both orientations): -1.66 | interaction score (AP6-AA; mean of both orientations): -2.13 | interaction score (P3-AA): -1.19 | interaction score (AP8-AA; mean of both orientations): -1.34 | interaction score (GCN2_T): -2.11 | interaction score (AP2-AA; mean of both orientations): -1.59 | interaction score (P9-AA; mean of both orientations): -1.77 | interaction score (P7-AA; mean of both orientations): -1.65 | interaction score (P11-AA; mean of both orientations): -1.38

KRLKQLRKRKQAKRWEEAQIEKELQAIEK [4H_APH2]
interaction score (P1-AA): -1.37 | interaction score (4H_BCR): -1.77 | interaction score (P10-AA): -1.63 | interaction score (AP4-AA): -1.35 | interaction score (AP1-AA): -1.22 | interaction score (P4-AA): -1.76 | interaction score (AP3-AA): -1.71 | interaction score (AP5-AA): -1.71 | interaction score (P8-AA): -1.79 | interaction score (AP7-AA): -1.91 | interaction score (P12-AA): -1.31 | interaction score (AP6-AA): -1.16 | interaction score (AP8-AA): -1.53 | interaction score (AP2-AA): -2.23 | interaction score (P9-AA): -1.85 | interaction score (P7-AA): -1.59 | interaction score (P11-AA): -1.87
